{"source": "patent US12486318B2", "about": "“Anti-guanosine antibody as a molecular delivery vehicle” (Yale University, priority 2016, dated 2025)", "key": {"cAMP in cultured cells": {"system": "cAMP in cultured cells", "conditions": "previous findings; cited from earlier work"}, "[1]": {"experiment": "GTPase assay, colorimetric Pi release from GTP", "type": "biochemical", "conditions": "4H2 0-1 mg/mL, 30 minutes, absorbance at 630 nm", "procedure": "Pi release from GTP after incubation with 4H2 (0-1 mg/mL) for 30 min was measured by colorimetric assay using the Innova GTPase activity kit.\nThe effect of 4H2 on Pi release from GTP was tested using a colorimetric assay. 4H2 (0-1 mg/mL) was incubated with GTP for 30 minutes, and Pi release was measured using the Innova GTPase activity kit. Concentration of Pi released was determined from absorbance at 630 nm and comparison to a free Pi standard curve. 4H2 in buffer alone was used as a blank."}, "[2]": {"system": "Single-stranded M13mp18 DNA", "experiment": "Nucleolytic assay", "type": "biochemical", "conditions": "0.5 mg/mL antibody, 37° C., 10 minutes", "procedure": "Single-stranded M13mp18 DNA (50 ng; New England Biolabs, Ipswich, MA) was incubated at 37° C. for 10 minutes in control binding buffer (50 mM Tris-HCl, 100 mM NaCl, 10 mM MgCl2) or binding buffer containing 0.5 mg/mL 4H2, 3E10, or 5C6.\nAn intriguing feature of some anti-DNA antibodies is an association with catalytic activities. […] To determine if 4H2 has any effect on DNA integrity it was incubated with single-stranded M13mp18 plasmid DNA for 10 minutes and then evaluated the integrity of the DNA on an agarose gel. 3E10 and 5C6 were also included as negative and positive controls, respectively."}, "[3]": {"system": "Akt phosphorylation in Cal12T cells", "experiment": "Western blot of phospho-Akt", "type": "cell-based, human", "conditions": "1 mg/mL", "procedure": "(§1) Cell lysates were prepared and run on 4-15% SDS-PAGE gradient gels, followed by transfer to membranes. Membranes were then blocked and incubated with the indicated primary antibodies, followed by HRP-conjugated secondary antibody and detection of bands by chemiluminescence. Band intensity measurements were taken using ImageJ.\n(§2) To probe the effect of 4H2 on signaling its effect on the phosphorylation of Akt was tested in cells."}, "[4]": {"system": "parental (WT) Cal12T lung cancer cells", "experiment": "Clonogenic survival by colony formation assay", "type": "cell-based, human", "conditions": "WT K-Ras", "procedure": "(§3) FIG. 2A is a line graph showing the effects of 4H2 on a matched pair of isogenic parental (WT) and G12C K-Ras-mutant (KRAS) Cal12T lung cancer cells. Clonogenic survival was measured by colony formation assay (*p<0.02. N=6). FIGS. 2B and 2C are line graphs showing H441 (2B) and H358 K-Ras (2C) addicted human lung cancer cells (G12V and G12C mutations, respectively) treated with control media or media containing 4H2. Surviving fractions were determined by colony formation assay (*p<0.01. N>3). FIG. 2D is a line graph showing the effect of 4H2 on tumor volume (mm^3) of H358 tumor xenografts generated in the flanks of nude mice by subcutaneous injection of tumor cells. Once tumors reached ˜100 mm3 volume mice were treated with direct tumor injection of 50 uL of control PBS or PBS containing 0.5 mg/mL 4H2 twice a week for three weeks. Tumor volumes were monitored, and growth curves are shown. […] N=3 mice per group.\n(§4) Aberrations in cell signaling caused by activating mutations in small GTPases such as the Ras family of proteins are found in ˜30% of malignancies, and K-Ras is one of the most frequently mutated small GTPases (Adjei, J Natl Cancer Inst, 93:1062-1074 (2001), Gysin, et al., Genes Cancer, 2:359-372 (2011)). Development of therapies that are preferentially toxic to K-Ras mutant cancer cells is a major goal in oncology. […]"}, "[5]": {"system": "G12C K-Ras-mutant Cal12T lung cancer cells", "experiment": "Clonogenic survival by colony formation assay", "type": "cell-based, human", "procedure": "as §3, §4"}, "ERK and Akt": {"system": "ERK and Akt", "conditions": "cited from earlier work"}, "[6]": {"system": "Htori-3-LLU thyroid epithelial cells", "conditions": "cited from earlier work"}, "[7]": {"system": "Akt phosphorylation in SW48 human colon cancer cells", "experiment": "Western blot of phospho-Akt", "type": "cell-based", "conditions": "1 mg/mL, 4 hours", "procedure": "FIG. 1A is a line graph showing the effect of 4H2 on release Pi from GTP as measured by colorimetric assay (N=2). FIG. 1B is a bar graph showing the relative amounts of phospho-Akt in Cal12T cells treated with 1 mg/mL 4H2 at 4 and 24 hours relative to control (*p<0.05. N=4). FIG. 1C is a bar graph showing the relative amounts of phospho-Akt in SW48 human colon cancer cells treated with 1 mg/mL 4H2 at 4 hours relative to control (*p<0.05. N=2).\nas §1, §2"}, "[8]": {"system": "H358 subcutaneous xenografts", "experiment": "Tumor growth suppression assay", "type": "in vivo, nude mice", "conditions": "intratumoral 25 ug (50 uL of 0.5 mg/mL) twice a week for three weeks; day 15 after initiation of treatment, p<0.01", "procedure": "as §3\nSubcutaneous xenografts were generated in nude mice by injection of 1×10^6 H358 cancer cells. Treatment with direct intratumoral injection of 50 uL of control PBS (N=3) or 4H2 in PBS (0.5 mg/mL) (N=3) twice a week for three weeks was initiated once tumors reached ˜100 mm^3. Tumor volumes were tracked by caliper measurements. […]"}, "[9]": {"conditions": "preliminary findings, data not published; cited from earlier work"}, "[10]": {"system": "PEO1 human ovarian cancer cells", "experiment": "Cell penetration, immunostaining of fixed cells after one hour treatment", "type": "cell-based", "conditions": "washed, alkaline phosphatase-conjugated anti-mouse antibody", "procedure": "The ability of 4H2 to penetrate into live cells was tested. PEO1 human ovarian cancer cells were treated with control media or media containing 4H2 or 3E10 (as a positive control) for one hour, and then cells were washed, fixed, and immunostained with an alkaline phosphatase-conjugated anti-mouse antibody."}, "[11]": {"system": "live Cal12T human lung cancer cells", "experiment": "Live cell penetration of FITC-labeled 4H2, fluorescence microscopy", "type": "cell-based", "conditions": "FITC-labeled 4H2 4 mg/mL, one hour", "procedure": "(§5) To confirm that 4H2 penetrates live cells and exclude the observation as a fixation artifact, FITC-labeled 4H2 was applied to live Cal12T and A549 human lung cancer cells at 4 mg/mL for one hour. Cells were also treated with Hoechst and MitoTracker stains to allow detection of nuclei and mitochondria, respectively. Cells were then washed and visualized under a fluorescence microscope."}, "[12]": {"system": "live A549 human lung cancer cells", "experiment": "Live cell penetration of FITC-labeled 4H2, fluorescence microscopy", "type": "cell-based", "conditions": "FITC-labeled 4H2 4 mg/mL, one hour", "procedure": "as §5"}, "[13]": {"system": "H358 K-Ras addicted human lung cancer cells", "experiment": "Surviving fraction by colony formation assay", "type": "cell-based", "conditions": "K-Ras G12C", "procedure": "as §3\n(§6) Lastly, to confirm that 4H2 is toxic to K-Ras addicted cancer cells in vivo, H358 subcutaneous xenografts were generated in nude mice and treated by direct injection with control buffer or 25 ug of 4H2 twice a week for three weeks."}, "[14]": {"system": "H441 K-Ras addicted human lung cancer cells", "experiment": "Surviving fraction by colony formation assay", "type": "cell-based", "conditions": "K-Ras G12V", "procedure": "as §3, §6"}, "Cal12T cells": {"system": "Cal12T cells", "experiment": "Cell-penetration and co-localization immunofluorescence assay", "type": "cell-based, human", "procedure": "Cal12T cells were grown on glass coverslips and treated with control media or media containing 0.5 mg/mL 4H2 for one hour. […] For co-localization studies, the fixed cells were also probed overnight with separate rabbit primary antibodies to detect endosomes (C45B10 anti-EEA1 antibody, Cell Signaling), lysosomes (D2D11 anti-LAMP1 antibody, Cell Signaling), endoplasmic reticulum (C81H6 anti-PDI antibody, Cell Signaling), golgi apparatus (D2B6N anti-RCAS1 antibody, Cell Signaling), mitochondria (3E11 anti-COX IV and D3932 anti-AIF antibodies, Cell Signaling), or K-Ras (anti-K-Ras antibody) extensively washed with PBS, and then incubated with an Alexa555-conjugated goat anti-rabbit IgG antibody (Cell Signaling). Cells were also treated with DAPI, and imaged using an EVOS fl digital fluorescence microscope (Advanced Microscopy Group, Bothell, WA) under light, DAPI, GFP, or RFP filters. Fluorescence images were merged using ImageJ (NIH, Bethesda, MD).\nAfter confirming that 4H2 penetrates live cells, subcellular localization was investigated through immunofluorescence co-localization studies. Cal12T cells were treated with 4H2 (0.5 mg/mL) for one hour and were then washed, fixed, and immunostained with an Alexa488-conjugated anti-mouse IgG antibody. […] Cells treated with 4H2 were also co-immunostained with rabbit primary antibodies against markers of early endosomes (EEA1), lysosomes (LAMP1), Golgi (RASC1), ER (PDI), and mitochondria (COX IV), followed by detection with an Alexa555-conjugated anti-rabbit IgG antibody. Use of the Alexa488 and Alexa555-conjugated antibodies to detect 4H2 and organelle markers allowed separate visualization of 4H2 and organelle locations under GFP and RFP filters, respectively. Merging of the GFP and RFP images should yield a yellow signal in areas of co-localization. DAPI co-stain allowed visualization of nuclei in blue. Representative merged images showing DAPI, GFP, and RFP filters for each co-stain were analyzed.\nTo explore this, Cal12T cells treated with 4H2 were co-stained for 4H2 and K-Ras using the technique described above."}, "DLD1 colon cancer cells": {"system": "DLD1 colon cancer cells", "experiment": "4H2 scFv cell penetration, protein L immunostaining", "type": "cell-based", "conditions": "6 μM, one hour"}}, "note": "“Also recorded” adds a separate entry of the source."}
{"molecule": "4H2: monoclonal anti-guanosine antibody produced by a hybridoma from MRL/lpr; VL SEQ ID NO:1, VH SEQ ID NO:5 (antibody, listed as Mus musculus, V domains shown) VH: EVQLQQSGPELVKPGASVKMSCKASGYTFTDYYMNWVKQSHGKSLEWIGRVNPSNGGISYNQKFKGKATLTVDKSLSTAYMQLNSLTSEDSAVYYCARGPYTMYYWGQGTSVTVSS VL: DIVLTQSPATLSVTPGDRVSLSCRASQSISNYLHWYQQKSHESPRLLIKYASQSISGIPSRFSGSGSGTDFTLSIISVETEDFGMYFCQQSNSWPLTFGAGTKLELK", "values": [{"measurement": "cAMP in cells", "setting": "cAMP in cultured cells", "result": "reduces cAMP in cells"}, {"measurement": "Pi release from GTP", "setting": "[1]", "result": "dose-dependent release of Pi from GTP"}, {"measurement": "effect on DNA integrity (agarose gel)", "setting": "[2]", "result": "neither 3E10 nor 4H2 had any discernible effects on the DNA integrity"}, {"measurement": "amount of phospho-Akt relative to control", "setting": "[3]; 24 hours", "result": "reduced the amount of phospho-Akt"}, {"measurement": "amount of phospho-Akt relative to control", "setting": "[3]; four hours", "result": "reduced the amount of phospho-Akt"}, {"measurement": "clonogenic survival, sensitivity to 4H2", "setting": "[4]", "result": "more resistant to its effects"}, {"measurement": "clonogenic survival, sensitivity to 4H2", "setting": "[5]", "result": "highly sensitive to 4H2"}, {"measurement": "phosphorylation of ERK and Akt", "setting": "ERK and Akt", "result": "reduce phosphorylation of ERK and Akt"}, {"measurement": "association with mitochondria", "setting": "[6]", "result": "appeared to associate with mitochondria"}, {"measurement": "amount of phospho-Akt relative to control", "setting": "[7]", "result": "reduce amounts of p-Akt"}, {"measurement": "tumor growth / tumor volume", "setting": "[8]", "result": "statistically significant difference in tumor volumes; also recorded: Detectable suppression of tumor growth"}, {"measurement": "cleavage of GTP", "setting": "[9]", "result": "catalyzed cleavage of the gamma-phosphate bond in radiolabeled GTP"}, {"measurement": "location of antibody staining in cells", "setting": "[10]", "result": "exclusively cytoplasmic staining"}, {"measurement": "4H2 signal in nuclei (overlay with Hoechst)", "setting": "[11]", "result": "absence of 4H2 signal in the nuclei"}, {"measurement": "FITC fluorescence correlating to 4H2, location", "setting": "[11]", "result": "detected in the cytoplasm"}, {"measurement": "co-localization with mitochondria (MitoTracker)", "setting": "[11]", "result": "a distinct co-localization with mitochondria could not be confirmed"}, {"measurement": "4H2 signal in nuclei (overlay with Hoechst)", "setting": "[12]", "result": "absence of 4H2 signal in the nuclei"}, {"measurement": "FITC fluorescence correlating to 4H2, location", "setting": "[12]", "result": "detected in the cytoplasm"}, {"measurement": "co-localization with mitochondria (MitoTracker)", "setting": "[12]", "result": "a distinct co-localization with mitochondria could not be confirmed"}, {"measurement": "surviving fraction, sensitivity to 4H2", "setting": "[13]", "result": "sensitive to 4H2"}, {"measurement": "surviving fraction, sensitivity to 4H2", "setting": "[14]", "result": "sensitive to 4H2"}, {"measurement": "co-localization with endosomes or lysosomes", "setting": "Cal12T cells; 0.5 mg/mL, one hour", "result": "did not colocalize with endosomes or lysosomes"}, {"measurement": "Alexa488 signal (4H2) location", "setting": "Cal12T cells; 0.5 mg/mL, one hour, fixed cells", "result": "detected in the cytoplasm"}, {"measurement": "localization to organelles: early endosomes (EEA1), lysosomes (LAMP1), Golgi (RASC1), ER (PDI), mitochondria (COX IV)", "setting": "Cal12T cells; 0.5 mg/mL, one hour, fixed cells, merged GFP/RFP images", "result": "did not appear to directly localize to any of the organelles tested"}, {"measurement": "co-localization with K-Ras", "setting": "Cal12T cells; co-stain for 4H2 and K-Ras, merged fluorescence", "result": "at least some degree of co-localization"}]}
{"molecule": "4H2 scFv: single chain variable fragment of 4H2, SEQ ID NO:22: VL, linker, VH, His6 tag (protein) scFv: DIVLTQSPATLSVTPGDRVSLSCRASQSISNYLHWYQQKSHESPRLLIKYASQSISGIPSRFSGSGSGTDFTLSIISVETEDFGMYFCQQSNSWPLTFGAGTKLELKADAAPGGGGSGGGGSGGGGSEVQLQQSGPELVKPGASVKMSCKASGYTFTDYYMNWVKQSHGKSLEWIGRVNPSNGGISYNQKFKGKATLTVDKSLSTAYMQLNSLTSEDSAVYYCARGPYTMYYWGQGTSVTVSSHHHHHH", "values": [{"measurement": "cell penetration", "setting": "DLD1 colon cancer cells", "result": "cell-penetrating activity"}]}
